According to patent US20230126400A1 (Alector, published 2023):

How the values were obtained:
[1] = molecular target: T1, human MS4A4A ECL1 peptide (amino acid residues 86-98) (human); assay: peptide ELISA
T1 construct: synthetic peptide
T1 peptide: CMASNTYGSNPIS
Protocol: (§1) Briefly, 96-well polystyrene plates were coated with 2 or 10 m/ml of synthetic free or BSA-conjugated peptides in coating buffer (0.05M carbonate buffer, pH9.6, Millipore Sigma Cat#C3041) overnight at 4° C. Coated plates were then blocked with ELISA diluent (PBS+0.5% BSA+0.05% Tween20) for 1-hour, washed 3×300 μL in PBST (PBS+0.05% Tween20, Thermo Cat#28352), and then the antibodies were added to the plate (50 μl/well). After 30 mins incubation (room temperature, with shaking), the plates were washed 3×300 μL in PBST. […] After a final set of washes (3×300 μL in PBST), 50 μL of TMB substrate (BioFx Cat#TMBW-1000-01) was added and the reaction was then quenched after 5-10 mins with 50 μL of stop solution (BioFx Cat#BSTP-1000-01). The quenched reaction wells were detected for absorbance at 650nm with a BioTek Synergy Microplate Reader using GENS 2.04 software.

[2] = molecular target: T2, human MS4A4A ECL2 peptide (amino acid residues 159-179), free (human); assay: peptide ELISA, supernatant
T2 construct: synthetic peptide; also called huMS4A4A-ELC2 free-peptide
T2 peptide: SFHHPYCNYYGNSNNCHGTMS

human MS4A4A [3] = molecular target: T3, human MS4A4A (human, UniProt Q96JQ5 1-239); assay: FACS, K562 cells, supernatant
Protocol: (§2) Positive clones identified in Example 22 above were expanded and then rescreened for specificity against U937, K562, and/or 300.19 cells stably overexpressing human MS4A4A or cyno MS4A4A and parental U937, K562, and/or 300.19 cells. These experiments were performed using supernatants from hybridoma clones which had undergone further expansion after initial selection. Briefly, stably transfected cells were labeled with LIVE/DEAD Fixable Aqua Dead Cell Stain Kit (ThermoFisher Scientific Cat#L34957) on ice for 30 minutes. […] 2×10⁵ cells were aliquoted per well in 96-well U-bottom plates and incubated with 50 μl of culture supernatant on ice for 30 minutes. […] Following this secondary incubation, the cells were again washed twice with ice-cold FACS buffer and resuspended in a final volume of 200 μl of FACS buffer. Analysis was performed on a FACS Canto system (BD Biosciences), with gates drawn to exclude dead (Aqua-positive) cells.
(§3) The APC ratio was calculated for each antibody as follows. […] For cell lines overexpressing human MS4A4A (h4A) or cyno MS4A4A (cy4A), the ration was calculated by comparing the binding measured to the binding observed on the corresponding parental cell lines.

human MS4A4A [4] = molecular target: T3, human MS4A4A; assay: FACS, U937 cells, supernatant
Protocol: as §2, §3

human MS4A4A [5] = molecular target: T3, human MS4A4A; assay: FACS, 300.19 cells, supernatant
Protocol: as §2, §3

human MS4A4A [6] = molecular target: T3, human MS4A4A; assay: functional affinity, FACS titration on stably transfected 300.19 cells
Protocol: (§4) Determination of functional affinity/KD was carried out as follows. A constant number of 300.19 cells stably transfected with constructs expressing MS4A4A were blocked against non-specific binding, and then incubated with anti-MS4A4A antibodies at various concentrations predetermined to span from saturation-binding to no antibodies present for three hours on ice so the reaction is allowed to achieve near equilibrium. The cells were then washed and incubated with fluorophore-conjugated secondary antibodies, washed again, and signal determined by FACS Cantos (Becton Dickinson, Franklin Lake, N.J.). To determine functional/KD, the four-parameter dose response curve with variable slope was fitted onto the data by Prism (Graphpad, San Diego, Calif.), based on the multiple independent binding site model described by Drake and Klakamp, supra.

cynomolgus (cyno) MS4A4A [7] = molecular target: T4, cynomolgus (cyno) MS4A4A (cynomolgus); assay: as above
T4 construct: also called cy4A; Cyno 4A
Protocol: as §4

[8] = molecular target: T5, human MS4A6A ECL1 peptide (amino acid residues 68-85) (human); assay: array SPR
T5 peptide: SASFSPNFTQVTSTLLNS
Protocol: (§5) Binding kinetic characterization of the anti-MS4A4A antibodies to MS4A4A ECL1 and ECL2 and to MS4A6A ECL1 and ECL2 peptides was performed by Carterra (South San Francisco, Calif.) using a proprietary array Surface Plasmon Resonance (SPR) instrument (MX-96) as follows. Antibodies were captured onto a CMD500D chip (Xantec # SPMX CMD500D) using the Continous Flow Microspotter (CFM). First, the chip was activated with 100 mM MES pH 5.5, 100 μL EDC (133 mM final), 100 μL of S-NHS (33.3 mM final), for 7 minutes. […] Anti-MS4A4A hydridoma supernatant or purified anti-MS4A4A antibodies were diluted in HBS-EP+ buffer (Teknova Cat # H8022) and then printed as duplicates with a 20 minute and a 5-minute print from the same sample solution.
(§6) These were then injected on the chip for five minutes, followed by a seven-minute dissociation period at 8 uL per second in a non-regenerative kinetic series. Duplicate measurements for each anti-MS4A4A antibody were taken to ensure reproducibility. Association rates (Kon) and dissociation rates (Koff) were calculated using a single one-to-one Langmuir binding model. The equilibrium dissociation constant (KD) was calculated as the ration of Koff/Kon.

[9] = molecular target: T6, human MS4A6A ECL2 peptide (amino acid residues 138-185) (human); assay: array SPR
T6 peptide: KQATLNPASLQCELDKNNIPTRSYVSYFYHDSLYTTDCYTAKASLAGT
Protocol: as §5, §6

[10] = molecular target: T7, BSA-conjugated human MS4A4A ECL2 peptide (amino acid residues 159-179) (human, conjugated to BSA (site not stated)); assay: ELISA, hybridoma supernatant
T7 construct: also called MS4A4A-ECL2 BSA conjugated peptide; BSA-MS4A4A-ELC2 peptide
T7 peptide: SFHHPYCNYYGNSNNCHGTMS
Protocol: as §1, with “1-10 μg/ml” for “2 or 10 m/ml”, “C3041)” for “Cat#C3041)”, “[…]).” for “μl/well).”, “TMBW-1000-01)” for “Cat#TMBW-1000-01)”, “BSTP-1000-01).” for “Cat#BSTP-1000-01).”, “650 nm” for “650nm”

[11] = molecular target: T7, BSA-conjugated human MS4A4A ECL2 …; assay: ELISA, supernatant
Protocol: as §1, with “1-10 μg/ml” for “2 or 10 m/ml”, “C3041)” for “Cat#C3041)”, “[…]).” for “μl/well).”, “TMBW-1000-01)” for “Cat#TMBW-1000-01)”, “BSTP-1000-01).” for “Cat#BSTP-1000-01).”, “650 nm” for “650nm”

human MS4A4A [12] = molecular target: T3, human MS4A4A; assay: FACS, HEK293, supernatant
Protocol: (§7) Positive clones identified above were expanded and then rescreened for specificity against HEK293 cells overexpressing human MS4A4A or cyno MS4A4A and parental HEK293 cells. These experiments were performed using supernatants from hybridoma clones which had undergone further expansion after initial selection. Briefly, previously prepared, cryopreserved transiently-transfected cells were labeled with LIVE/DEAD Fixable Aqua Dead Cell Stain Kit (ThermoFisher Scientific L34957) on ice for 30 minutes. After a wash with PBS, 2×10⁵ cells were aliquoted per well in 96-well U-bottom plates and incubated with 50 μl of culture supernatant on ice for 30 minutes. […] Following this secondary incubation, the cells were again washed twice with ice-cold FACS buffer and resuspended in a final volume of 200 μl of FACS buffer. Analysis was performed on a FACS Canto system (BD Biosciences), with sort gates drawn to exclude dead (Aqua-positive) cells. Positive clones (fold change of 1.8 or greater) were carried forward for further testing.

cynomolgus (cyno) MS4A4A [13] = molecular target: T4, cynomolgus (cyno) MS4A4A; assay: FACS, HEK293, supernatant
Protocol: as §7

[14] = molecular target: T1, human MS4A4A ECL1 peptide (amino acid …); assay: ELISA, hybridoma supernatant
Protocol: as §1, with “1-10 μg/ml” for “2 or 10 m/ml”, “C3041)” for “Cat#C3041)”, “[…]).” for “μl/well).”, “TMBW-1000-01)” for “Cat#TMBW-1000-01)”, “BSTP-1000-01).” for “Cat#BSTP-1000-01).”, “650 nm” for “650nm”

cynomolgus (cyno) MS4A4A [15] = molecular target: T4, cynomolgus (cyno) MS4A4A; assay: flow cytometry (anti-mouse IgG Fc-APC), hybridoma supernatant on 300.19 cells transfected with cyno MS4A4A
Protocol: Flow cytometry was performed as follows. Briefly, transiently-transfected cells were labeled with LIVE/DEAD Fixable Aqua Dead Cell Stain Kit (ThermoFisher Scientific Cat#L34957) on ice for 30 minutes. […] 2×10⁵ cells were aliquoted per well in 96-well U-bottom plates and incubated with 50 μl of culture supernatant on ice for 30 minutes. […] Following this secondary incubation, the cells were again washed twice with ice-cold FACS buffer and resuspended in a final volume of 200 μl of FACS buffer. Analysis was performed on a FACS Canto system (BD Biosciences), with gates drawn to exclude dead (Aqua-positive) cells.

human MS4A4A [16] = molecular target: T3, human MS4A4A; assay: FACS, K562 cells, supernatant; K562 cells overexpressing h4A
Protocol: as §2, §3

human MS4A4A [17] = molecular target: T3, human MS4A4A; assay: FACS, U937 cells, supernatant; U937 cells overexpressing h4A
Protocol: as §2, §3

B1: anti-MS4A4A antibody 4A-220 (antibody, V domains shown)
VH: EVQLQQSGPDLVKPGASVKISCKASGYSFNGYFMNWVMQSHGESLEWIGRINPYNGDTLYNQKFKGKATLTVDKSSSTGHMELRSLASEDSAVYYCARVKGYDYDGAMDYWGQGTSVTVSS
VL: DIVMTQSPDSLAVSLGERATINCRSSQSLLQSGNQKSSLAWYQQKPGQPPKLLIFWARTRQSGVPDRFSGSGSGTDFTLTISSVQAEDVAVYYCQQYSDTPFTFGQGTKLEIK
notes: murine hybridoma antibody
binding result [1]: no binding | binding result [2]: no binding | fold increase in MFI (human MS4A4A [3]): > 2 fold | fold increase in MFI (human MS4A4A [4]): > 2 fold | fold increase in MFI (human MS4A4A [5]): > 2 fold

B2: anti-MS4A4A antibody 4A-18, huIgG1 chimera (antibody, V domains shown)
VH: QVQLQQPGTELVKPGASVKLSCKASGYTFTSYWIHWVKQRPGQGLEWIGNINPTNGGTNYNERFKSKATLTVDKSSSTAYMQLSSLTSEDSAVYYCARAYYYGSSLFAYWGQGTLVTVSA
VL: DIVMTQSQKFMSTTVGDRVSITCKASQNVGTAVAWSQQKPGQSPKLLIYSASYRHTGVPDRFTGSGSGTDFTLTITNMQSEDLADYFCQQYSTYPWTFGGGTKLEIK
notes: also called 4A-18 (hIgG1)
Kd (human MS4A4A [6]): 0.84 nM | Kd (cynomolgus (cyno) MS4A4A [7]): 3.1 nM

B3: anti-MS4A4A antibody 4A-18 (murine) (antibody, IgG1, V domains shown)
VH: QVQLQQPGTELVKPGASVKLSCKASGYTFTSYWIHWVKQRPGQGLEWIGNINPTNGGTNYNERFKSKATLTVDKSSSTAYMQLSSLTSEDSAVYYCARAYYYGSSLFAYWGQGTLVTVSA
VL: DIVMTQSQKFMSTTVGDRVSITCKASQNVGTAVAWSQQKPGQSPKLLIYSASYRHTGVPDRFTGSGSGTDFTLTITNMQSEDLADYFCQQYSTYPWTFGGGTKLEIK
notes: murine hybridoma antibody, msIgG1; also called 4A-18 (msIgG1)
binding result [8]: no binding (tested: 2000 nM) | binding result [9]: no binding (tested: 2000 nM) | binding result [1]: no binding | binding result [10]: no binding | Kd (human MS4A4A [6]): 1.6 nM

B4: anti-MS4A4A antibody 4A-14 (antibody, V domains shown)
VH: EVKLEESGGGLVQPGGSMKLSCAASGFTFSDAWLDWVRQSPEKGLEWVAEIRSKANDHATYYAESVKGRFTISRDDSKSRFYLQMNSLRAEDTGIYYCSVDYYGFFWGQGTLVTVSA
VL: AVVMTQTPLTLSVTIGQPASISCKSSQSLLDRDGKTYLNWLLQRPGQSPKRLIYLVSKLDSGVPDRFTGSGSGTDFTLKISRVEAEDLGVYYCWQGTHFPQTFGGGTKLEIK
notes: murine hybridoma antibody
binding result [8]: no binding (tested: 2000 nM) | binding result [9]: no binding (tested: 2000 nM) | binding result [11]: binds | Human 4A:parental cell ratio (human MS4A4A [12]): 4.2 ratio | Cyno 4A:parental cell ratio (cynomolgus (cyno) MS4A4A [13]): 0.647 ratio | binding result [14]: no binding | binding result (cynomolgus (cyno) MS4A4A [15]): no binding

B5: anti-MS4A4A antibody 4A-202, huIgG1 chimera (antibody, V domains shown)
VH: QVQLQQSGAELARPGASVKLSCKASGYTFTNYWMQWVKQRPGQGLEWIGATHPGHGDTRYTQKFKGKATLSADKSSSTAYMQLSNLASEDSAVYYCAREEVYYGFRSYWYFDVWGAGTTVTVSS
VL: not shown
Kd (human MS4A4A [6]): 3.5 nM | Kd (cynomolgus (cyno) MS4A4A [7]): 1.8 nM

B6: anti-MS4A4A antibody 4A-21, huIgG1 chimera (antibody, V domains shown)
VH: QIQLVQSGPELKKPGETVKISCKASGYIFTSYGLSWVKQTPGKGLKWMGWINTYSGVPTYANDFKGRFAFSLETSASTTYLRINNLKNDDTATYFCARSLVDYWGQGTPLTVSS
VL: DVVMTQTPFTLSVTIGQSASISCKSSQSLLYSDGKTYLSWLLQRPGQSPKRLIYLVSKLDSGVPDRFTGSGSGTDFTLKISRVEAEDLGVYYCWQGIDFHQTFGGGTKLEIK
notes: also called 4A-21 (hIgG1)
Kd (cynomolgus (cyno) MS4A4A [7]): 7.6 nM

B7: anti-MS4A4A antibody 4A-204 (antibody, V domains shown)
VH: DVKLVESGGGLAKLGGSLKLSCAASGFTFSSFYMSWVRQTPEKRLELVAAINSNGGSTYYPDSVKGRFTISRDNVKNTLYLQMSSLKSEDTAMYYCARHLYYGLYYAMDYWGQGTSVTVSS
VL: ENVLTQSPAIMSASPGEKVTMTCSASSSVSFMYWYQEKSSTSPKLWIYDTSKLASGVPGRFSGSGSGNSYSLTISSMGAEDVATYYCFQGSGFPLTFGSGTKLEIK
notes: murine hybridoma antibody
binding result [1]: no binding | binding result [2]: no binding | fold increase in MFI (human MS4A4A [16]): > 2 fold | fold increase in MFI (human MS4A4A [17]): > 2 fold
